Where a chain is given by its changes, count along the chain named.
Assays:
[1] = target: T1, AAV2-EGFP (AAV vector of serotype 2 carrying an EGFP gene) (AAV2, UniProt P03135 1-735; P03135 1-598; P03135 1-533); assay: mini column of immobilised protein loaded to breakthrough; AAV2-EGFP recovered by elution at pH 3.0, qPCR
T1 construct: Genome-containing AAV2 particle; amounts counted as vector genomes (VG) by qPCR

[2] = target: T2, VLP2 (virus-like particles of AAV2) (AAV2, UniProt P03135 1-735; P03135 1-598; P03135 1-533); assay: ELISA on VLP2; A450 after pH 2.5 30°C 24 h / untreated
T2 construct: Empty AAV2 capsid; background says about 60 protein molecules, VP1:VP2:VP3 = 1:1:10; Immobilised on the ELISA plate
T2 sequence (P03135 whole entry, chain 1 of 3): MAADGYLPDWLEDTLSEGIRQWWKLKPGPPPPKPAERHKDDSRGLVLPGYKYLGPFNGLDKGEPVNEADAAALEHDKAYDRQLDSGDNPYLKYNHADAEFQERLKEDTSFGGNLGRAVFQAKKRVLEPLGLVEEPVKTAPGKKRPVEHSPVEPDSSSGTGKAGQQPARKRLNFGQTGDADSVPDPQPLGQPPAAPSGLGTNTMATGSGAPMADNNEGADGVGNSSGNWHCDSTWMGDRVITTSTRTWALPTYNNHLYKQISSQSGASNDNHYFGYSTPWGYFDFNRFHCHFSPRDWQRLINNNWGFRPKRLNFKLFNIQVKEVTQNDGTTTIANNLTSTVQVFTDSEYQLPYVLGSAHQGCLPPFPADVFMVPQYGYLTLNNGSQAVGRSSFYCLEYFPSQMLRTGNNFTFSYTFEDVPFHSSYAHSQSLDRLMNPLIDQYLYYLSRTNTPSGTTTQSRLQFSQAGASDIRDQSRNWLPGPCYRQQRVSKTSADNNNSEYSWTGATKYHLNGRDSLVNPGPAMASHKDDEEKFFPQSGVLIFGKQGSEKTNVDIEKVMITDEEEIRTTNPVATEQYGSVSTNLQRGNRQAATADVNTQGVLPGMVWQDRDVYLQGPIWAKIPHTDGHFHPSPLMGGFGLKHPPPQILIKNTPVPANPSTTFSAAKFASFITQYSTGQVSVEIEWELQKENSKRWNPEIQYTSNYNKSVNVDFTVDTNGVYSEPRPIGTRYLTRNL
T2 sequence (P03135 139-735, tags left off, chain 2 of 3): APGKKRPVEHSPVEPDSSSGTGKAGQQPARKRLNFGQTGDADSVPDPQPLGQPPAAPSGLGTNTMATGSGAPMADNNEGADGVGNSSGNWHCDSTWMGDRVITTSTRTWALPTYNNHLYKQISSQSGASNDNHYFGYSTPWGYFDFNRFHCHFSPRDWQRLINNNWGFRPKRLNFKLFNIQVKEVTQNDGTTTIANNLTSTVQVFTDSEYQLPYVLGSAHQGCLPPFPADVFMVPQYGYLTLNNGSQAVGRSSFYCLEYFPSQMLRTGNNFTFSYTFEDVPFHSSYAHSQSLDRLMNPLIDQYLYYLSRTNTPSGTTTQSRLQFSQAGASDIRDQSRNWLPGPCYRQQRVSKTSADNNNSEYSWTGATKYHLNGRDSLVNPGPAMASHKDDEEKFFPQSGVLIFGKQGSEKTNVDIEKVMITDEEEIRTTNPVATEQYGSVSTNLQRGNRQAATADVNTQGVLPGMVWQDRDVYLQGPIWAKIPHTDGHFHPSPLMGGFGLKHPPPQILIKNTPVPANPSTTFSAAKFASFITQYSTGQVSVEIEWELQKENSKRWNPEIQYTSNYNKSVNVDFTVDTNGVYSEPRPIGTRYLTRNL
T2 sequence (P03135 203-735, chain 3 of 3): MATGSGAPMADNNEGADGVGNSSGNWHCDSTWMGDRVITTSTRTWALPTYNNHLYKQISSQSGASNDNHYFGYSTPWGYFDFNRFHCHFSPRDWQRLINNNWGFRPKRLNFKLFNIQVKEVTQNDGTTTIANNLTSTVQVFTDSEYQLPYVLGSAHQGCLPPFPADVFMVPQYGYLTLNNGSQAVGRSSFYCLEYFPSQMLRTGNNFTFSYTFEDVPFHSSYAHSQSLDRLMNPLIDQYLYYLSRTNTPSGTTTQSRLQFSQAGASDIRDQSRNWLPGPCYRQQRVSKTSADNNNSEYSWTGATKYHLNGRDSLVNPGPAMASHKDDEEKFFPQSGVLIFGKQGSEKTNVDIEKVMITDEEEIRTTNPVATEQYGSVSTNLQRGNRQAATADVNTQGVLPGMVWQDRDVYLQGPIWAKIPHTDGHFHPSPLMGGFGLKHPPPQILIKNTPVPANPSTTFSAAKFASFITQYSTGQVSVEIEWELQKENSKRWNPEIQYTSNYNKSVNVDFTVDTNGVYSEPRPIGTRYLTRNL

[3] = target: T2, VLP2 (virus-like particles of AAV2); assay: ELISA on VLP2; A450 after pH 2.5 30°C 2 h / untreated
[4] = target: T2, VLP2 (virus-like particles of AAV2); assay: ELISA on VLP2; A450 after 50.3°C 15 min / untreated
[5] = target: T2, VLP2 (virus-like particles of AAV2); assay: ELISA on VLP2; binding after 43°C 15 min / untreated
[6] = target: T2, VLP2 (virus-like particles of AAV2); assay: ELISA on VLP2; A450 after 66.1°C 15 min / untreated
[7] = target: T2, VLP2 (virus-like particles of AAV2); assay: ELISA on VLP2; binding after pH 3.0 51.1°C 15 min / untreated;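 note: binding of the heat-treated AAV-binding protein to VLP2, expressed as a percentage of the binding of the same protein without heating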
[8] = target: T2, VLP2 (virus-like particles of AAV2); assay: ELISA on VLP2; A450 after pH 3.0 66.1°C 15 min / 25°C
[9] = target: T2, VLP2 (virus-like particles of AAV2); assay: ELISA on VLP2; A450 after pH 3.0 51.5°C 15 min / 25°C
[10] = target: T2, VLP2 (virus-like particles of AAV2); assay: ELISA on VLP2; A450 after pH 3.0 60.1°C 15 min / 25°C
[11] = target: T2, VLP2 (virus-like particles of AAV2); assay: ELISA on VLP2; A450 after pH 3.0 80.8°C 15 min / 25°C
[12] = target: T2, VLP2 (virus-like particles of AAV2); assay: ELISA on VLP2; A450 after pH 3.0 89.8°C 15 min / 25°C
[13] = target: T2, VLP2 (virus-like particles of AAV2); assay: ELISA on VLP2; binding after pH 3.0 61.0°C 15 min / untreated
[14] = target: T2, VLP2 (virus-like particles of AAV2); assay: ELISA on VLP2; binding after pH 10.0 41.2°C 15 min / untreated

T1 sequence (P03135 whole entry, chain 1 of 3, the tested form may be a part): as the sequence (P03135 whole entry, chain 1 of 3) above
T1 sequence (P03135 139-735, tags left off, chain 2 of 3): as the sequence (P03135 139-735, tags left off, chain 2 of 3) above
T1 sequence (P03135 203-735, chain 3 of 3): as the sequence (P03135 203-735, chain 3 of 3) above

B1: AVR3HC (protein having an immobilization tag at the C-terminus of AVR3) (receptor)
chain: MGSAGESVQITLPKNEVQLNAYVLQEPPKGETCTYDWQLITHPRDYSGEMEGKHSQILKLSKLTPGLYEFKVIVEGQNAHSEGYVNVTVKPEPRKNRPPIAIVSPQFQEISLPTTSTVIDGSQSTDDDKIVQYHWEELKGPLREEKISEDTAILKLSKLVPGNYTFRLTVVDSDGATNSTTANLTVNKAVDHHHHHHCRNDTCG
notes: Immobilised on gel; also called AVR3HC-immobilized gel
amount of AAV2-EGFP bound per 1 mL of protein-immobilized gel [1]: 2.8e+12 VG/mL (gel)

B2: AVR8gHC (protein having an immobilization tag at the C-terminus of AVR8g) (receptor)
chain: B1 chain with V8D, K53E, K62N, K90E, N178D
notes: Immobilised on gel; also called AVR8gHC-immobilized gel
amount of AAV2-EGFP bound per 1 mL of protein-immobilized gel [1]: 1.2e+13 VG/mL (gel)

B3: wild-type AAV-binding protein (extracellular domains 1 and 2, PKD1 and PKD2, of KIAA0319L/AAVR, positions 312-500 of SEQ ID NO: 1, with His tag) (receptor)
chain: MGSAGESVQITLPKNEVQLNAYVLQEPPKGETYTYDWQLITHPRDYSGEMEGKHSQILKLSKLTPGLYEFKVIVEGQNAHGEGYVNVTVKPEPRKNRPPIAIVSPQFQEISLPTTSTVIDGSQSTDDDKIVQYHWEELKGPLREEKISEDTAILKLSKLVPGNYTFSLTVVDSDGATNSTTANLTVNKAVDHHHHHH
notes: Expressed in E. coli; tested as extract, culture supernatant or purified protein; also called wild-type AVR; product of pET-AAVRD2
amount of AAV2-EGFP bound per 1 mL of protein-immobilized gel [1]: 8.6e+09 VG/mL (gel) | Residual activity [%] [2]: 5.1% | Residual activity [%] [3]: 7.9% | Residual activity [%] [4]: 16.1% | Residual activity [%] [5]: 43.4% | Residual activity [%] [6]: 9.6%

B4: AVR2 (AAV-binding protein No. 32, Tyr342Cys-Gly390Ser substitution product) (receptor)
chain: B3 chain with Y33C, G81S
Residual activity [%] [2]: 64.7% | Residual activity [%] [3]: 70.7% | Residual activity [%] [4]: 76% | Residual activity [%] [5]: 97.6% | Residual activity [%] [7]: 25.5% | Residual activity [%] [6]: 70.5%

B5: AVR4a (Ile319Phe, Tyr342Cys, Gly390Ser, Ser476Arg) (receptor)
chain: B3 chain with I10F, Y33C, G81S, S167R
Residual activity after heat treatment [%] [8]: 8% | Residual activity after heat treatment [%] [9]: 57% | Residual activity after heat treatment [%] [10]: 16%

B6: AVR3 (AAV-binding protein No. 75; Tyr342Cys, Gly390Ser, Ser476Arg) (receptor)
chain: B3 chain with Y33C, G81S, S167R
Residual activity after heat treatment [%] [8]: 2% | Residual activity after heat treatment [%] [9]: 21% | Residual activity after heat treatment [%] [10]: 3% | Residual activity [%] [7]: 96.3%

B7: AVR4d (Tyr342Cys, Gly390Ser, Ser476Arg, Asn487Asp) (receptor)
chain: B3 chain with Y33C, G81S, S167R, N178D
Residual activity after heat treatment [%] [8]: 18% | Residual activity after heat treatment [%] [9]: 66% | Residual activity after heat treatment [%] [10]: 35%

B8: AVR8a (Val317Asp, Asn324Asp, Tyr342Cys, Lys362Glu, Gly390Ser, Lys399Glu, Ser476Arg, Asn487Asp) (receptor)
chain: B3 chain with V8D, N15D, Y33C, K53E, G81S, K90E, S167R, N178D
Residual activity after heat treatment [%] [11]: 66% | Residual activity after heat treatment [%] [12]: 52%

B9: AAV-binding protein No. 49 (Tyr331Cys, Thr343Met, Tyr355Cys) (receptor)
chain: B3 chain with Y22C, T34M, Y46C
Residual activity [%] [2]: 16.6% | Residual activity [%] [3]: 52.8% | Residual activity [%] [4]: 77.3% | Residual activity [%] [5]: 97.7% | Residual activity [%] [6]: 57.3%

B10: AAV-binding protein No. 43 (Leu321Pro, Tyr342Asn, Ala461Ser) (receptor)
chain: B3 chain with L12P, Y33N, A152S
Residual activity [%] [2]: 28.3% | Residual activity [%] [3]: 41.4% | Residual activity [%] [4]: 55.6% | Residual activity [%] [5]: 84.1% | Residual activity [%] [6]: 56.3%

B11: AAV-binding protein No. 16 (Leu369Gln) (receptor)
chain: B3 chain with L60Q
Residual activity [%] [2]: 10% | Residual activity [%] [3]: 17.3% | Residual activity [%] [4]: 32% | Residual activity [%] [5]: 92.8% | Residual activity [%] [6]: 20.3%

B12: AAV-binding protein No. 45 (Asn329Asp, Tyr342His, Tyr355Cys) (receptor)
chain: B3 chain with N20D, Y33H, Y46C
Residual activity [%] [2]: 47.6% | Residual activity [%] [3]: 64.4% | Residual activity [%] [4]: 66% | Residual activity [%] [5]: 97.2% | Residual activity [%] [6]: 46.7%

B13: AAV-binding protein No. 36 (Tyr355His, Asn387Ser) (receptor)
chain: B3 chain with Y46H, N78S
Residual activity [%] [2]: 8.9% | Residual activity [%] [3]: 16.1% | Residual activity [%] [4]: 74.5% | Residual activity [%] [5]: 86.6% | Residual activity [%] [6]: 51%

B14: AAV-binding protein No. 30 (Glu340Gly, Tyr342Cys) (receptor)
chain: B3 chain with E31G, Y33C
Residual activity [%] [2]: 56.1% | Residual activity [%] [3]: 70.5% | Residual activity [%] [4]: 65.4% | Residual activity [%] [5]: 91.3% | Residual activity [%] [6]: 52.4%

B15: AAV-binding protein No. 47 (Asn329Tyr, Tyr377Cys, Arg406Ser) (receptor)
chain: B3 chain with N20Y, Y68C, R97S
Residual activity [%] [2]: 34.8% | Residual activity [%] [3]: 43.6% | Residual activity [%] [4]: 64.5% | Residual activity [%] [5]: 92.7% | Residual activity [%] [6]: 58.7%

B16: AAV-binding protein No. 53 (Asp354Gly, Leu369Gln, Lys455Arg) (receptor)
chain: B3 chain with D45G, L60Q, K146R
Residual activity [%] [2]: 13.2% | Residual activity [%] [3]: 18.2% | Residual activity [%] [4]: 29.8% | Residual activity [%] [5]: 90.5% | Residual activity [%] [6]: 23.5%

B17: AAV-binding protein No. 9 (Pro352Leu) (receptor)
chain: B3 chain with P43L
Residual activity [%] [2]: 5.6% | Residual activity [%] [3]: 17.6% | Residual activity [%] [4]: 49% | Residual activity [%] [5]: 71.9% | Residual activity [%] [6]: 46.5%

B18: AVR7b (AAV-binding protein No. 91; AVR5e + Val317Asp, Lys371Asn) (receptor)
chain: B3 chain with V8D, Y33C, K62N, G81S, K90E, S167R, N178D
Residual activity [%] [13]: 55.7%

B19: AVR7a (AAV-binding protein No. 93; AVR5e + Asn324Asp, Lys362Glu) (receptor)
chain: B3 chain with N15D, Y33C, K53E, G81S, K90E, S167R, N178D
Residual activity after heat treatment [%] [11]: 57% | Residual activity [%] [13]: 50.7% | Residual activity after heat treatment [%] [12]: 54%

B20: AVR5b (Ile319Phe, Lys323Glu, Tyr342Cys, Gly390Ser, Ser476Arg) (receptor)
chain: B3 chain with I10F, K14E, Y33C, G81S, S167R
Residual activity after heat treatment [%] [8]: 23% | Residual activity after heat treatment [%] [9]: 87% | Residual activity after heat treatment [%] [10]: 43%

B21: AVR5e (Tyr342Cys, Gly390Ser, Lys399Glu, Ser476Arg, Asn487Asp) (receptor)
chain: B3 chain with Y33C, G81S, K90E, S167R, N178D
Residual activity after heat treatment [%] [8]: 43% | Residual activity after heat treatment [%] [9]: 77% | Residual activity [%] [13]: 25.5% | Residual activity after heat treatment [%] [10]: 56%

B22: AAV-binding protein No. 29 (Leu333Val, Tyr342Cys) (receptor)
chain: B3 chain with L24V, Y33C
Residual activity [%] [2]: 40.2% | Residual activity [%] [3]: 52.2% | Residual activity [%] [4]: 66.7% | Residual activity [%] [5]: 91.8% | Residual activity [%] [6]: 54.5%

B23: AVR8g (Val317Asp, Tyr342Cys, Lys362Glu, Lys371Asn, Gly390Ser, Lys399Glu, Ser476Arg, Asn487Asp) (receptor)
chain: B3 chain with V8D, Y33C, K53E, K62N, G81S, K90E, S167R, N178D
Residual activity [%] [14]: 23.1% | Residual activity after heat treatment [%] [11]: 67% | Residual activity after heat treatment [%] [12]: 55%

Source: patent US20220402995A1 (TOSOH, published 2022)
